Test results taken from US20110262445A1 (CEPHALON AUSTRALIA, published 2011).
Residue numbers refer to the chain shown, from its start. Names and notes keep the numbering of the source.

T1: human IL-23 (human, UniProt P29460 23-328; Q9NPF7 20-189)
T1 construct: Recombinant (Ebioscience); HIS-tagged in flow cytometry, biotinylated in some assays; also called hIL-23; rhIL-23
T1 sequence 1: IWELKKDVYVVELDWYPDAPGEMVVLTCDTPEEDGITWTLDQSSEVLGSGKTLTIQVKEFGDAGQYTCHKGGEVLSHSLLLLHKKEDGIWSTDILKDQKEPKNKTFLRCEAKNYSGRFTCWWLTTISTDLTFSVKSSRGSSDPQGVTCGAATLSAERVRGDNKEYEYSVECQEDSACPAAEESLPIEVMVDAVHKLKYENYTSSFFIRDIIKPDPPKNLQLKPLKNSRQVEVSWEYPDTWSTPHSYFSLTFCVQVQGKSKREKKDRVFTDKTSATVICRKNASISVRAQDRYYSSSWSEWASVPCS
T1 sequence 2: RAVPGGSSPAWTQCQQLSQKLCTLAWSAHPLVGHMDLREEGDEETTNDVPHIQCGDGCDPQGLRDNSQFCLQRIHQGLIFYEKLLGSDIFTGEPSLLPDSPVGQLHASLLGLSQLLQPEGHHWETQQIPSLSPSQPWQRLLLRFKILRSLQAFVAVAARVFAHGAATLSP

T2: human IL-12 (human, UniProt P29460 23-328; P29459 23-219)
T2 construct: Recombinant (Peprotech); FLAG-tagged IL-12 in the flow cytometry assays, biotinylated in the IL-12Rβ2 assay; also called hIL-12
T2 sequence 1: T1 sequence 1
T2 sequence 2: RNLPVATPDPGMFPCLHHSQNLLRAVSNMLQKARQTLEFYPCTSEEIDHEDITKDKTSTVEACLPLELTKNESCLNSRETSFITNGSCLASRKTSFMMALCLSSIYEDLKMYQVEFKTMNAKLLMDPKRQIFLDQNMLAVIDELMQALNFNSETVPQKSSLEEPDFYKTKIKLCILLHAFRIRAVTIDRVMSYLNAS

B1: Antibody 51 (antibody, human IgG1, kappa, V domains shown)
VH: EVQLVQSGAEVKKPGATVKISCKASGYTFSDYYLHWVRQAPGKGLEWMGWIDPENGDTEYAPKFQGRVTITADTSTDTGYLELSSLRSEDTAVYYCAANKELRYFDVWGQGTLVTVSS
VL: DIQMTQSPSSVSASVGDRVTITCRASQSISINLHWYQQKPGKAPKLLIYFASQSISGVPSRFSGSGSGTDFSLTINSLQPEDFATYYCQQSNSFPLTFGGGTKVEIKR
B2: Antibody 12 (antibody, human IgG1, kappa, V domains shown)
VH: EVQLQQSGADLVRSGASIKLSCTASGFNIKDYYMHWVKQRPEQGLEWIGWIDPENGDTEYAPKFQGKATMTADTSSNTAYLQLSSLTSEDTAVYYCNAHKELRYFDVWGAGTTVTVSS
VL: DIVLTQSPATLSVTPGDSVSLSCRASQSISINLHWYQQKSHESPRLLIKFASQSISGIPSRFSGYGSGTDFTLSINSVETEDFGRYFCQQSNSWPLTFGAGTKLELKR
B3: Antibody 13 (antibody, human IgG1, kappa, V domains shown)
VH: B2 VH with H99I
VL: B2 VL
B4: Antibody 17 (antibody, human IgG1, kappa, V domains shown)
VH: B2 VH with H99F
VL: B2 VL
B5: Antibody 18 (antibody, human IgG1, kappa, V domains shown)
VH: B2 VH with H99P
VL: B2 VL
B6: Antibody 19 (antibody, human IgG1, kappa, V domains shown)
VH: B2 VH with H99S
VL: B2 VL
B7: Antibody 20 (antibody, human IgG1, kappa, V domains shown)
VH: B2 VH with H99T
VL: B2 VL
B8: Antibody 22 (antibody, human IgG1, kappa, V domains shown)
VH: B2 VH with H99V
VL: B2 VL
B9: scFv combo. # 1 (scFv)
scFv: QVQLVQSGAEVKKPGASVKVSCKASGYTFTDYYLHWVRQAPGRGLEWMGWIDPENGDTEHAPKFQGRVTMTTDTSTSTAYMELRSLRSDDTAVYYCNANKELRYFDVWGQGTMVTVSSGGGGSGGGGSGGGGSEIVMTQSPATLSVSPGERATLSCRASQSISINLHWYQQKPGQAPRLLIYFASQSTSGIPARFSGSGSGTEFTLTISSLQSEDFAVYYCQQSNSFPLTFGGGTKVEIKR
notes: scFv-80 with VH Q43R, Y59H; VL I55T; not shown: proprietary C-terminal FLAG tag
B10: scFv combo. # 2 (scFv)
scFv: B9 scFv with T28A, R43Q, H60S, T188I
notes: scFv-80 with VH T28A, Y59S; not shown: proprietary C-terminal FLAG tag
B11: scFv combo. # 6 (scFv)
scFv: B9 scFv with T28A, R43Q, T69S, T188I
notes: scFv-80 with VH T28A, Y59H, T68S; not shown: proprietary C-terminal FLAG tag
B12: scFv combo. # 7 (scFv)
scFv: B9 scFv with F29L, R43Q, T188I
notes: scFv-80 with VH F29L, Y59H; not shown: proprietary C-terminal FLAG tag
B13: scFv combo. # 8 (scFv)
scFv: B9 scFv with F29L, R43Q, H60S, T188I
notes: scFv-80 with VH F29L, Y59S; not shown: proprietary C-terminal FLAG tag
B14: scFv combo. # 9 (scFv)
scFv: B9 scFv with H60S
notes: scFv-80 with VH Q43R, Y59S; VL I55T; not shown: proprietary C-terminal FLAG tag
B15: scFv combo. # 10 (scFv)
scFv: B9 scFv with T28A, R43Q, T188I
notes: scFv-80 with VH T28A, Y59H; not shown: proprietary C-terminal FLAG tag
B16: scFv combo. # 11 (scFv)
scFv: B9 scFv with R43Q, H60S, S159P, T188I
notes: scFv-80 with VH Y59S; VL S26P; not shown: proprietary C-terminal FLAG tag
B17: scFv combo. # 12 (scFv)
scFv: B9 scFv with T28A, R43Q, H60S, T69S, T188I
notes: scFv-80 with VH T28A, Y59S, T68S; not shown: proprietary C-terminal FLAG tag
B18: Antibody 3 (antibody, human IgG1, kappa, V domains shown)
VH: B2 VH with H99C
VL: B2 VL with W94F
notes: Antibody 1 with light chain W94F
B19: Antibody 4 (antibody, human IgG1, kappa, V domains shown)
VH: B2 VH with M34L, H99C
VL: B2 VL
notes: Antibody 1 with heavy chain M34L
B20: Antibody 7 (antibody, human IgG1, kappa, V domains shown)
VH: B2 VH with H99N
VL: B2 VL
notes: Antibody 1 with heavy chain C95N

molecular target: T1, human IL-23; experiment: ELISA, coated IL-23
Outline: (§1)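 Binding values are absorbance readings. After cytokine (1 μg/mL, carbonate buffer pH 9.6) was coated onto Maxisorp plates overnight at 4° C and the plates were blocked with 1% BSA in PBS, antibody titrations were bound for 1 hour at 25° C and detected with HRP-linked goat anti-human IgG or anti-murine immunoglobulin (1:2000). Color from TMB, stopped with 1M HCl, was read at 450 nm with 620 nm as reference.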

Binder	binding result
B1	binds

molecular target: T1, human IL-23; experiment: ELISA, coated IL-23; remark: another data set of the same source
Procedure: This cysteine at the start of CDR3 could be oxidized, causing heterogeneity in any resulting antibody product. It could also form complexes by disulphide bond formation. Therefore, each of the other 18 (the exceptions being the original Cys and Trp) amino acids was substituted in this position using gene synthesis, and the antibodies were expressed transiently (Antibodies 5, 6, 7, 8, 9, 10, 11, 12, 13, 14, 15, 16, 17, 18, 19, 20, 21, 22). An ELISA was performed on these antibodies (FIG. 9). Some of the antibodies retained binding activity for both IL-12 and IL-23, others only for one cytokine or the other, while others minimally bound to either cytokine.
IL-12 (Peprotech), IL-23 (Ebioscience™), IL-12p40 (Ebioscience™) or IL-12p80 (Peprotech), was diluted to 1 μg/mL in carbonate coating buffer ([…] pH 9.6) and coated onto a 96 well plate (Nunc™, Maxisorp™) overnight at 4° C. The plate was then washed three times with wash buffer (0.01M PBS pH 7.2, 0.05% Tween-20) and then three times with 0.01M PBS pH 7.2. The wells were then blocked by adding 200 μl of blocking buffer (1% w/v BSA in 0.01 M PBS pH 7.2) to each well and incubating the plate at 25° C. for 1 hour. The antibody was diluted in antibody diluent (1% w/v BSA, 0.05% Tween-20 in 0.01M PBS pH 7.2) sufficient to generate a titration curve. The wells were incubated with the antibody for 1 hour at 25° C. The plate was then washed as previously described. Goat anti-human immunoglobulin G (H+L) antibody HRP conjugate (Zymed®) at 1:2000 in antibody diluent was used to detect bound primary antibody. Goat anti-murine immunoglobulin antibody HRP conjugate (Dako) at 1:2000 in antibody diluent was used to detect bound murine antibody. After incubation at 25° C. for 1 hour the plate was washed again as previously described. TMB substrate solution (Zymed®) was added to each well and the colour allowed to develop; the reaction was terminated by adding 1M HCl to the wells. The absorbance of each well was determined at 450 nm (ref. 620 nm).

Binder	binding result
B2	binds
B3	binds
B4	binds
B5	binds
B6	binds
B7	binds
B8	binds

molecular target: T1, human IL-23; experiment: SPR, single 81 nM analyte, scFv via FLAG; LOD about 1 × 10^-5 s^-1

Binder	koff [s⁻¹]
B9	< 1e-05
B10	< 1e-05
B11	< 1e-05
B12	< 1e-05
B13	< 1e-05
B14	< 1e-05
B15	< 1e-05
B16	< 1e-05
B17	< 1e-05

molecular target: T2, human IL-12; experiment: ELISA, coated IL-12
Outline: as §1

Binder	binding result
B1	binds

molecular target: T1, human IL-23; experiment: SPR, single 81 nM analyte, scFv via FLAG

Binder	Kd [nM]	kon [M⁻¹ s⁻¹]
B9	≤ 0.032	230000
B10	≤ 0.034	230000
B11	≤ 0.041	230000
B12	≤ 0.0033	200000
B13	≤ 0.0075	200000
B14	≤ 0.027	220000
B15	≤ 0.013	220000
B16	≤ 0.027	220000
B17	≤ 0.016	220000

molecular target: T2, human IL-12; experiment: ELISA, coated IL-12; remark: another data set of the same source
Outline: as §1

Binder	binding result
B2	binds
B3	binds
B4	binds
B5	binds
B6	binds
B7	binds
B8	binds

molecular target: T1, human IL-23; experiment: SPR, IgG on Protein A
Procedure: (§2) Using a SPR 3000, Protein A was immobilized onto FC1 and FC2 (or alternatively FC3 and FC4) of a CM5 research grade sensor chip using amine coupling, giving approximately […] RU. FC1 was used a blank throughout the experiments. The experiments were run in HBS-P buffer (SPR). At a flow rate of 20 μl/min, 20 μl of 5 μg/mL of antibody was passed over FC2. IL-12, IL-23 or IL-12p40 (Peprotech) were passed over the surface of FC1 and FC2 at concentrations ranging from 66 nM to 2 nM. Regeneration of the surface was performed using 10 mM Glycine, pH 1.0. The sensorgram data from FC2 was subtracted from FC1 and a buffer only control. The curves were fitted using a 1:1 Langmuir equation to generate the kd, ka and KD values. All curves were fitted with a χ² of less then 2.0 where possible.

Binder	Kd [nM]	koff [s⁻¹]	kon [M⁻¹ s⁻¹]
B18	0.0896	0.000111	1.24e+06
B19	0.127	0.000158	1.25e+06
B20	0.0722	0.000147	2.03e+06

molecular target: T2, human IL-12; experiment: SPR, IgG on Protein A
Procedure: as §2

Binder	Kd [nM]	koff [s⁻¹]	kon [M⁻¹ s⁻¹]
B18	0.0438	9.39e-05	2.15e+06
B19	0.133	0.000204	1.54e+06
B20	0.0918	0.000167	1.82e+06
